The results in this text go back to PMC4821647.

In data set [1] the target is T1, Arid5a (Mus musculus, UniProt Q3U108 1-590).
T1 sequence: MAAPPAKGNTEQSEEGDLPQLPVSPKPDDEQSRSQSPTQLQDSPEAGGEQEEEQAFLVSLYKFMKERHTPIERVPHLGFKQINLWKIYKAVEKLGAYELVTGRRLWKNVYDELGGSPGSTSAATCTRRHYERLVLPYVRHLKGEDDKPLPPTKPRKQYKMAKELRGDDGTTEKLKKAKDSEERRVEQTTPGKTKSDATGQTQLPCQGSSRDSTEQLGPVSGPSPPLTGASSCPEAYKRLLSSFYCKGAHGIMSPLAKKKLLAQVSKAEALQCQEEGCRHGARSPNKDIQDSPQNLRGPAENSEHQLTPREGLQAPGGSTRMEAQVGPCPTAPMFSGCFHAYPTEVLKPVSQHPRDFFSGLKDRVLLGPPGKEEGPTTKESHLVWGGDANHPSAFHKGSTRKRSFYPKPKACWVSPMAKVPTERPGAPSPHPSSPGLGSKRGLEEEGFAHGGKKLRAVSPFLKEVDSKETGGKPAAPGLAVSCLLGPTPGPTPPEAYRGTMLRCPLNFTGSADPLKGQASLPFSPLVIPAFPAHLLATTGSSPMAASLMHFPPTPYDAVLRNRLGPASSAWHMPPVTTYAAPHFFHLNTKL
The experiment in a line: EMSA. A general note: In EMSA bound probe runs differently from free probe, usually more slowly.

Data set [2] concerns the target T2, Arid5a R128A (Mus musculus, UniProt Q3U108 1-590, R128A).
T2 sequence: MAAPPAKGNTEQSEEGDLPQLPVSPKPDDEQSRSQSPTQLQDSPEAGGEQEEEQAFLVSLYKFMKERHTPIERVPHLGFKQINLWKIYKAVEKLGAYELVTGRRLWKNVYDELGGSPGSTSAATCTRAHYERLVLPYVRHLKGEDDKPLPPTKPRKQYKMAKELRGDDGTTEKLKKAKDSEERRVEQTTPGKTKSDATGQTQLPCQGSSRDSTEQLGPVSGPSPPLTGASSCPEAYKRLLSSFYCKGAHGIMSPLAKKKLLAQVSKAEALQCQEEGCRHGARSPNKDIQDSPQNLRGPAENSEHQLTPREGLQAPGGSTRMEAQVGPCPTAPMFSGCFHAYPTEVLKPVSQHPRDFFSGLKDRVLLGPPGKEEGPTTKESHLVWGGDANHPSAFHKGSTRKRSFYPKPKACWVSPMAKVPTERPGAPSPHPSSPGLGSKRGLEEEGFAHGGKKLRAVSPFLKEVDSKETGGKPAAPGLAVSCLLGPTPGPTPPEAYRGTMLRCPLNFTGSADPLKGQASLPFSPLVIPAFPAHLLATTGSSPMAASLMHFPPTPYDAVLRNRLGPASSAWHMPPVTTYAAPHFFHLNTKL
Nature of the data set: EMSA.

For UGCACACCCUUGUGUUCUGGCCACUGCA (structured_RNA) [mutant stem-loop STAT3 3'UTR (1738-1765)], the binding result in data set [1] was “no binding”.
Take UGCAGUGGCUUGUGUUCUGGCCACUGCA (structured_RNA) [STAT3 3'UTR (1738-1765) stem-loop]: the figures for the binding result in data set [2] and in data set [1] were “no binding” and “binds”, respectively.
